Experimental data from US20260258131A1 (ADAGENE PTE, published 2026).
Positions count from the first letter of the chain named. Numbers in names are those of the source.

B1: TY21580 (antibody, human IgG1, V domains shown)
VH: EVQLVESGGGLVQPGGSLRLSCAASGYSISSGYHWSWIRQAPGKGLEWLARIDWDDDKYYSTSLKSRLTISRDNSKNTLYLQLNSLRAEDTAVYYCARSYVYFDYWGQGTLVTVSS
VL: DIQLTQSPSSLSASVGDRVTITCRASQSVRGRFLAWYQQKPGKAPKLLIYDASNRATGIPSRFSGSGSGTDFTLTISSLQPEDFATYYCQQSSSWPPTFGQGTKVEIKR
notes: also called parental antibody TY21580
B2: TY24652-MMP9 (antibody, IgG1)
heavy: not shown
light: DIQLTQSPSSLSASVGDRVTITCRASQSVRGRFLAWYQQKPGKAPKLLIYDASNRATGIPSRFSGSGSGTDFTLTISSLQPEDFATYYCQQSSSWPPTFGQGTKVEIKRTVAAPSVFIFPPSDEQLKSGTASVVCLLNNFYPREAKVQWKVDNALQSGNSQESVTEQDSKDSTYSLSSTLTLSKADYEKHKVYACEVTHQGLSSPVTKSFNRGEC
notes: TY24652 after 24 h with MMP-9; IgG1 Fc with S239D/I332E
B3: TY24652 (antibody, human IgG1, kappa)
heavy: not shown
light: ETLCEPFATSVCRPGGGPLGLAGGGSDIQLTQSPSSLSASVGDRVTITCRASQSVRGRFLAWYQQKPGKAPKLLIYDASNRATGIPSRFSGSGSGTDFTLTISSLQPEDFATYYCQQSSSWPPTFGQGTKVEIKRTVAAPSVFIFPPSDEQLKSGTASVVCLLNNFYPREAKVQWKVDNALQSGNSQESVTEQDSKDSTYSLSSTLTLSKADYEKHKVYACEVTHQGLSSPVTKSFNRGEC
notes: also called non-cleaved form TY24652

What was measured:
[1] = target: T1, human CTLA4 expressed on cells (human, UniProt P16410 36-223); test: cell-based or functional assay
T1 sequence (looked up): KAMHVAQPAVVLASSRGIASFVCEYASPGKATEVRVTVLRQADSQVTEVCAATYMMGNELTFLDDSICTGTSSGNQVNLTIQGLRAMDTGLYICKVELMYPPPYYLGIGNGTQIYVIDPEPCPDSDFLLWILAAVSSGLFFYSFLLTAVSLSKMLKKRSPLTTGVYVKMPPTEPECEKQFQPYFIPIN

[2] = target: T2, Recombinant human CTLA4-hisFc (human, UniProt P16410 36-161, limits assumed); test: ELISA, coated CTLA4-hisFc
T2 construct: Coated on the ELISA plate; the whole UniProt entry is named; also called recombinant human CLTA4-hisFc; its antigen; not shown: his tag and Fc
T2 sequence (looked up): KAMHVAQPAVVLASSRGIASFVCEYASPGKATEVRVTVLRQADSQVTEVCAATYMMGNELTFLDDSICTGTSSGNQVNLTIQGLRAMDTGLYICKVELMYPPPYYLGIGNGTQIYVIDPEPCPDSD
Procedure: (§1) Plates were blocked with PBS supplemented with 3% non-fat milk at 37° C. for 1 hour. After washing, 100 µL of 3-fold serial dilutions of antibodies were added to each well. After incubation at 37° C. for 1 hour, plates were washed four times, and 100 μL HRP conjugated anti-human IgG (Fab specific) (1:6000 dilution) was added to each well. Plates were incubated at 37° C. for 1 hour, washed four times, and then 50 μL TMB substrate solution was added to each well, and the plate was incubated at room temperature. Absorbance at 450 nm was measured after the reactions were stopped with 50 μL H2SO4 per well. The EC50 was evaluated by fitting the ELISA data using the sigmoidal (four-parameter logistic equation) model of GraphPad Prism 6 software. Experiments for some activatable antibodies were performed twice or more, leading to two or more calculated masking efficiencies being obtained for each of these activatable antibodies.
(§2) The purified activatable antibodies were treated with the proteases which recognize the cleavage sequences, and were then tested to determine whether removal of the masking peptide restored their activity. […] The reactions were carried out at 37° C. for 24 hours. […] The masking efficiency was then measured by ELISA as described above.

[3] = target: recombinant mouse CTLA-4 protein (mouse, UniProt P09793 36-161, limits assumed); test: SPR (Biacore), antibody captured by anti-human IgG Fc, CTLA-4 in flow
Procedure: (§3) Serial dilutions of recombinant CTLA-4 proteins of different species origins were sequentially loaded and flowed through the chip to measure the kinetics of CTLA-4 antigen association (kₐ), followed by a buffer flow-through phase for dissociation kinetics (kd) measurement. The binding affinity (KD) is then calculated with […].

[4] = target: T3, recombinant cynomolgus monkey CTLA-4 protein (cynomolgus monkey, UniProt G7PL88 36-161); test: as above
T3 sequence: T2 sequence (looked up) with S14N, I18T, L106M
Procedure: as §3

[5] = target: T4, recombinant rat CTLA-4 protein (rat, UniProt Q62859 36-161); test: as above
T4 sequence: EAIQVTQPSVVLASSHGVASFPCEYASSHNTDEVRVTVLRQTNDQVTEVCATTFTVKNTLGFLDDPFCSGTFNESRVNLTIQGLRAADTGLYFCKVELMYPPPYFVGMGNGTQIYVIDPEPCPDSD
Procedure: as §3

[6] = target: T2, Recombinant human CTLA4-hisFc; test: ELISA, coated CTLA4-hisFc, after MMP-9 cleavage
Procedure: as §1, §2

[7] = target: T5, biotinylated CTLA-4 protein (UniProt P16410 36-161, limits assumed, biotinylated (sites not given)); test: competition ELISA, biotinylated CTLA-4 on coated CD86 (competitor CD86)
T5 construct: also called receptor CTLA-4
T5 sequence (looked up): T2 sequence (looked up)
Source text: (§4) Relative CTLA-4 and its ligand binding was monitored by reading the absorbance at 450 nm wavelength in the micro-plate reader.

[8] = target: T5, biotinylated CTLA-4 protein; test: competition ELISA, biotinylated CTLA-4 on coated CD80 (competitor CD80)
Source text: as §4

[9] = target: T6, recombinant human CTLA-4 protein (human, UniProt P16410 36-161, limits assumed); test: SPR (Biacore), antibody captured by anti-human IgG Fc, CTLA-4 in flow
T6 sequence (looked up): T2 sequence (looked up)
Procedure: as §3

Row | Binder | ADCP reporter activity (luciferase), EC50 [1] [nM] | EC50 [2] [nM] | Kd [3] [nM] | Kd [4] [nM] | Kd [5] [nM] | EC50 [6] [nM] | IC50 [7] [nM] | IC50 [8] [nM] | Kd [9] [nM]
1 | B1 | 5.6 | 0.298 | 0.5 | 0.37 | 0.78 |  |  |  | 
2 | B2 |  |  | 0.63 |  | 0.69 | 0.313 | 17.5 | 280 | 
3 | B3 |  |  | 49.4 | 32.3 | 59.5 |  | > 4000 | > 20000 | 32.5
